Experimental data as given in publication PMC10110401, “HuR modulation counteracts lipopolysaccharide response in murine macrophages”.

Molecular target: HuR M1M2 (rM1M2_HuR) (UniProt Q15717 20-186)
Assay: HTRF; 20 nM protein, 50 nM probe; hook point titration 0-500 nM protein; TM7nox inhibits with IC50 0.7956 uM (small-molecule value); REMSA: 3.7 nM (or 100 nM) protein, 1 nM probe, 30 min, 4% native PAGE, buffer not given; HTRF: 20 nM protein, 50 nM probe, buffer not given; pull-down: lysis in 20 mM Tris-HCl pH 7.5, 100 mM KCl, 5 mM MgCl2, 0.5% NP-40, probe 0.5 uM in TENT (20 mM Tris-HCl pH 8.0, 2 mM EDTA, 500 mM …)
Conditions: protein: recombinant; tags: His-tag; label: biotin; single strand

Chain of HuR M1M2 (rM1M2_HuR) (Q15717 20-186): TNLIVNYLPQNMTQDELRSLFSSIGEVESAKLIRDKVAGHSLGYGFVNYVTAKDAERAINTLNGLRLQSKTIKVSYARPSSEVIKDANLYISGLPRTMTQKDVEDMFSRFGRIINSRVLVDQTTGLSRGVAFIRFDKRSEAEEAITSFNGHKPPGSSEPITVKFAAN

AUUAUUUAUUAUUUAUUUAUUAUUUA (ssRNA, 5'-biotin) [Bi-TNF ARE probe]: binds.
